In publication PMC8262886, “The Breadth and Molecular Basis of Hcp-Driven Type VI Secretion System Effector Delivery” (mBio, 2021):

Molecular target: the molecule itself
Test: negative-stain electron microscopy; purified Hcp1-His diluted to 0.01 mg/ml, 2% uranyl acetate, 2D class averages with top and side views

B1: Hcp1-His (natural protein)
chain: MAVDMFIKIGDVKGESKDKTHAEEIDVLAWSWGMSQSGSMHMGGGGGAGKVNVQDLSFTKYIDKSTPNLMMACSSGKHYPQAKLTIRKAGGENQVEYLIITLKEVLVSSVSTGGSGGEDRLTENVTLNFAQVQVDYQPQKADGAKDGGPVKYGWNIRQNVQA
notes: Hcp1 of Pseudomonas aeruginosa, the Hcp of the H1-T6SS; also called His-tagged version of Hcp1; source: E. coli BL21(λDE3), from pACYCDuet-1; coexpressed with an effector, in lysate, copurified (Ni-NTA, SEC); also purified alone (Ni-NTA, SEC); not shown: His, C-terminal, kept
B1: binds.
